Source: patent US7101844B2, “Cytoplasmic transduction peptides and uses thereof” (Creagene, Inc., priority 2002, dated 2006)
Primed or numbered codes have the meaning given here. No end group written: not given here. FITC′ = not defined here

How the values were obtained:
[1] = test system: HeLa cells; test: Kinetics on the transduction of CTP-β-gal and PTD-β-gal; format: cell-based; conditions: trypsin prior to cell harvest
Description: The Membrane permeability of CTP-β-gal and PTD-β-gal was analyzed in kinetics. Cells were treated with the fusion protein and lysed with 0.9% Triton X-100 solution without trypsinization, after which the overall β-gal activity in the cells was measured. Furthermore, in order to measure the authentic trnsduction amount of β-gal imported into the cells, the cells were trypsinized following the treatment with fusion protein, and then examined the amount of the β-gal activity imported into the cells in the same conditions (see FIG. 8).

[2] = parameters: species or system BALB/c mice; conditions: mouse, in vivo, iv
Description: To elucidate whether the CTP of this invention can deliver its fusion partner into cells in vivo as well as into cells in vitro, BALB/c mice were injected i.p. with 25 μg/(g of mouse) of CTP-β-gal, PTD-β-gal, MTS-β-gal fusion protein or β-gal protein, or injected i.v. via tail vein with 100 μg/mouse of fusion proteins. Four hr after injection, mice were euthanized and skinned, and their peritoneal cavities were dissected, followed by washing three times with a PBS buffer. After fixation with a fixing solution, whole body was stained in X-gal solution. Each organ was extracted and the β-gal activity was measured.

[3] = mouse, in vivo
Description: CTP-β-gal was administered via the peritoneal cavity or a tail vein of mice. Four hr later, organs such as thymus, heart, spleen, liver and kidney were extracted. The organs rapidly frozen were sectioned with a microtome, and then incubated overnight in a X-gal reaction solution, followed by observation of the β-gal activity under a microscope.

[4] = molecular target: T1, XIAP (X-linked inhibitor of apoptosis protein) (Homo sapiens, UniProt P98170); test: Inhibition of XIAP function: UV-induced apoptosis of XIAP-transfected Jurkat E6 cells (Annexin V FACS); format: cell-based; conditions: 0.1, 0.5, 1 μg/ml peptide, 2 hr
T1 construct: expressed in transfected cells; host or cells: Jurkat E6
T1 sequence (P98170 whole entry, species assumed): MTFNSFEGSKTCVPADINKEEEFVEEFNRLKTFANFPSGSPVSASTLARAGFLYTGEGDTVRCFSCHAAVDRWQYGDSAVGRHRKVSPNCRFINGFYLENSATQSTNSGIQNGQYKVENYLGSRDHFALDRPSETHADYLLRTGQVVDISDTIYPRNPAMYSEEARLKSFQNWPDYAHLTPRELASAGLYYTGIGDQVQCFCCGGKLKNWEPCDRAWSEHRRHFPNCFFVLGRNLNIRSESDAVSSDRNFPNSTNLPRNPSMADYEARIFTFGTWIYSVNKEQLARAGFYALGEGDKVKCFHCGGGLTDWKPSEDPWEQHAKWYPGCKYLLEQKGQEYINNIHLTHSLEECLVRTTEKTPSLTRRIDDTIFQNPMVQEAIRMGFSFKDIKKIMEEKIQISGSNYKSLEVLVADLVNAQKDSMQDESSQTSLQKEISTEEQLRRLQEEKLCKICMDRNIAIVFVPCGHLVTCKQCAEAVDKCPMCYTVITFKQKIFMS
Description: Since the first amino acid, alanine, of the 7-amino acid sequence at the N-terminal of the Smac/DIABLO peptide is pivotal in binding to XIAP, as reported previously, CTP was linked to C-terminal of the Smac/DIABLO peptide to prepare Smac/Diablo-CTP-FITC peptide. For detection, FITC was conjugated at the C-terminal of the peptide: Smac/Diablo-CTP-FITC ([…]-FITC).
Jurkat E6 (2×10^5 cell/ml) were transfected with 10 μg of pcDNA3-XIAP using a transfection reagent, GenePORTER 2 (1 μl/μg DNA) and cultured for 2 days at 37° C. in RPMI containing 10% FBS. Two days later, the cells were washed twice with 1× PBS, and treated with Smac/Diablo-CTP-FITC peptide (synthesized at HHMI, KECK BIOTECHNOLOGY RESOURCE CENTER) for 2 hr at 37° C. in a serum free media at concentrations of 0.1 μg/ml, 0.5 μg/ml and 1 μg/ml. Then, to measure the extent of apoptosis, the cells were exposed to UV light (40 W) for 50 sec in a culture hood. After 6 hr, the cells were washed twice with 1 × PBS and the apoptozed cells were measured by FACS using Annexin V-FITC apoptosis detection kit (BD Biosciences Pharmingen. Cot: 556547).

apoptosis of cells transfected with 10 μg pcDNA-XIAP DNA [4] | Substance | transduction potential / import into cells over time [1] | β-gal activity in auxiliary, inguinal and popliteal lymph nodes [2] | β-gal activity in organ sections (thymus, heart, spleen, liver, kidney) [3]
 | β-gal: only β-galactosidase protein, negative control | not to be imported into cells with the lapse of time | not observed | little or no β-gal activity in the inner side
greatly increased | AVPIAQKSEGGRRARRRRRRK-FITC (AVPIAQKSEGGRRARRRRRRK-{FITC′}) [Smac/Diablo-CTP-FITC, N-terminal Smac/DIABLO peptide linked to CTP, FITC at the C-terminal] |  |  | 
